Here are results for four molecules from paper PMC11344281 (Protein Science : A Publication of the Protein Society, 2024).

The labels stand for the following.
B1: syntaxin 18 SNARE domain (aa 229–312) (domain or fragment)
chain: EEIQMFEQENQRLIGEMNSLFDEVRQIEGKVVEISRLQEIFTEKVLQQETEIDSIHQLVVGATENIKEGNEDIREAIKNNAGFR
B2: Use1 SNARE domain (aa 174–239) (domain or fragment)
chain: QRHQGLQEKLAEEMLGLARSLKTNTLAAQSVIKKDNQTLSHSLKMADQNLEKLKLESERLEQHAQK
B3: U_SNAP (Sec20, aa 133–198; Use1, aa 174–239), chimeric Qbc-SNARE with the SNAP-25 linker (other)
chain: QTSSSITESLMGISRMMSQQVQQSEEAMQTLVSSSRTLLDANEEFKSMSGTIQLGRKLITKYNRREGLSVSPSNKLKSSDAYKKAWGNNQDGVVASQPARVVDEREQMAISGGFIRRVTNDQRHQGLQEKLAEEMLGLARSLKTNTLAAQSVIKKDNQTLSHSLKMADQNLEKLKLESERLEQHAQK
B4: Sec20 SNARE domain (aa 133–198) (domain or fragment)
chain: QTSSSITESLMGISRMMSQQVQQSEEAMQTLVSSSRTLLDANEEFKSMSGTIQLGRKLITKYNRRE

Experiment [1] concerns the target synaptobrevin 2 (aa 1–96) (Rattus norvegicus, UniProt P63045 1-96). In words: native gel or EMSA + SEC. (In general: In EMSA bound probe runs differently from free probe, usually more slowly.)
Experiment [2] addresses B1. In words: native gel or EMSA + SEC.
The target of experiment [3] is B1. In words: native gel or EMSA.
Experiment [4] addresses B2. In words: native gel or EMSA + SEC.

Chain of synaptobrevin 2 (aa 1–96) (P63045 1-96): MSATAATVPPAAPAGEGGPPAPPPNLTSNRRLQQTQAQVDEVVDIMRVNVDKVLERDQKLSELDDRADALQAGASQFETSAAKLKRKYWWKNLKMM

On to B1, for which the binding result in experiment [1] is reported as “binds”.

In the case of B2, the binding result in experiment [2] is “binds”. Turning to B3, the binding result in experiment [3] is reported as “binds”. Consider B4, for which the binding result in experiment [2] and in experiment [4] was “binds” in each case.
